Assay [1] addresses T1, recombinant human PDGF-BB (human, UniProt P01127 82-190, biotin-labelled in the binding and competition ELISAs (sites not given)). The assay can be described thus: cell-based or functional assay.
Assay [2] concerns the target recombinant rat PDGF-BB (rat, UniProt Q05028 74-182). Briefly: cell-based or functional assay.
Target sequence in this assay (Q05028 74-182 limits assumed): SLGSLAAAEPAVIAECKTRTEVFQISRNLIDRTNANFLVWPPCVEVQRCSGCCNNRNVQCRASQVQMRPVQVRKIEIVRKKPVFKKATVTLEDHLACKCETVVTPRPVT
Assay [3] addresses T1, recombinant human PDGF-BB. The assay can be described thus: receptor competition ELISA: antibody pre-incubated with biotin-hPDGF-BB, binding to coated hPDGF-Rβ-Fc. How it is done: (§1) Plates were then washed four times with wash buffer (TBS, 0.05% Tween-20) and blocked with Superblock blocking buffer (Thermo Scientific, cat#37535). During the blocking step, supernatants, antibodies, benchmark compounds or DVD-Ig were diluted in assay diluent (10% Superblock containing 0.05% surfactamps) and an eight point titration of each sample molecule was performed. […] Following incubation, plates were washed four times with wash buffer. Detection reagent Streptavidin-polyHRP-40 (Fitzgerald, cat#65r-s104phrp) was diluted in assay diluent and added to plates (50 μL) for 45 minutes at 25° C. with shaking. Plates were washed four times with wash buffer and developed with the addition of Enhanced K-blue TMB substrate (Neogen, cat#308177). The reaction was stopped with 2N sulfuric acid (VWR, cat# BDH3500-1) and the absorbance was read at 450 nm-570 nm. […] Data was analyzed using Softmax Pro 4.8 software and IC₅₀ values calculated using a sigmoidal dose response (variable slope) fit in GraphPad Prism 5.

The target in assay [4] is T2, recombinant human PDGF-BB (human, UniProt P01127 82-190).
T2 construct: Bought (CST cat#8912BF), biotinylated for the ELISAs; Dimer of two B chains; also called huPDGF-BB; hPDGF-BB
T2 sequence (P01127 82-190 limits assumed): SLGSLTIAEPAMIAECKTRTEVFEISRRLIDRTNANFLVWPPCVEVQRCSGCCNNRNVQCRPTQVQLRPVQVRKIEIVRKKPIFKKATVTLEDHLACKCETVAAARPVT
The assay can be described thus: competition ELISA: blocks biotin-hPDGF-BB binding to coated hPDGF-Rβ-Fc. As to the method:
as §1
On the technique in general: An ELISA detects its analyte on a solid surface through an enzyme-linked reagent.

Assay [5] concerns the target T2, recombinant human PDGF-BB. Briefly: cell-based or functional assay.
Assay [6] has as its target recombinant rat PDGF-BB (rat, UniProt Q05028 74-182). Briefly: cell-based or functional assay. This is another data set of the same source.
Target sequence in this assay (Q05028 74-182 limits assumed): as the sequence (Q05028 74-182 limits assumed) above
The target in assay [7] is T3, recombinant human VEGF-R2-Fc (human, UniProt P35968 20-764).
T3 construct: Bought Fc fusion (R&D Systems cat#357-KD); also called hVEGFR2-Fc; VEGF-R2 (KDR/Flk-1); not shown: Fc part of the bought fusion protein
T3 sequence (P35968 20-764 limits assumed): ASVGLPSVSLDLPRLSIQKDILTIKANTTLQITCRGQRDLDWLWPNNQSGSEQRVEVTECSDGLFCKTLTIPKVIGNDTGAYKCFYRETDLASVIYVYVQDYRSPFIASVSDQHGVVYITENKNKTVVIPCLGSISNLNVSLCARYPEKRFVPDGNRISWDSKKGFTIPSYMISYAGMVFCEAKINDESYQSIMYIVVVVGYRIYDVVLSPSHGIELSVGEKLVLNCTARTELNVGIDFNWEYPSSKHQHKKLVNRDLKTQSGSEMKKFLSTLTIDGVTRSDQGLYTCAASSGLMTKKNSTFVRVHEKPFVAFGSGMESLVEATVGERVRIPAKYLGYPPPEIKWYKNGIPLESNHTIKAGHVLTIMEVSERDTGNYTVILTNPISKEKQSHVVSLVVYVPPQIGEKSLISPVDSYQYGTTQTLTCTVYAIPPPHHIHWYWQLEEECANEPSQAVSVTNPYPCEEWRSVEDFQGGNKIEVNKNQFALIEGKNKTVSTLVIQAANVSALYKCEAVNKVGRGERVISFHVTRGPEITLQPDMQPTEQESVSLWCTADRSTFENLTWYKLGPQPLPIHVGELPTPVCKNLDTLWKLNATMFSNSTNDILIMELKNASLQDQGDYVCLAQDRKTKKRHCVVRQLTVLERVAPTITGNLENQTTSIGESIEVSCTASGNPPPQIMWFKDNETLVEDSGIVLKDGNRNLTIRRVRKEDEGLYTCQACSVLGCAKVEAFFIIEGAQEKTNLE
The assay can be described thus: competition ELISA: antibody added to coated hVEGF-R2-Fc, then biotinylated hVEGF165 (competitor). As to the method:
To identify molecules which could block the binding of VEGF-R2 (KDR/Flk-1) to hVEGF₁₆₅, a competition ELISA was performed. […] Plates were then washed four times with wash buffer (TBS, 0.05% Tween-20) and blocked with Superblock blocking buffer (Thermo Scientific, cat#37535). […] The samples were added to wells and incubated for 30 minutes at 25° C. with shaking. […] Following incubation, plates were washed four times with wash buffer. Streptavidin-polyHRP-40 (Fitzgerald cat#65r-s104phrp) was diluted in assay diluent (10% Superblock containing 0.05% surfactamps) and added to plates (50 μL) for 45 minutes at 25° C. with shaking. Plates were washed four times with wash buffer and developed with the addition of Enhanced K-blue TMB substrate (Neogen cat#308177). The reaction was stopped with 2N sulfuric acid (VWR, cat# BDH3500-1) and the absorbance was read at 450 nm-570 nm. A decrease in observed optical density indicates the test molecule is blocking the human VEGF-R2-Fc binding to hVEGF₁₆₅. Data was analyzed using Softmax Pro 4.8 software and IC₅₀ values calculated using a sigmoidal dose response (variable slope) fit in GraphPad Prism 5.
Humanized anti-VEGFR2 antibodies were tested for potency against hVEGFR2 in functional assay formats. The antibodies were characterized for the ability to block VEGFR2 binding to hVEGF₁₆₅ in a competition ELISA format (Example 1.22).

For the next assay, the target named is T4, rat PDGF-B (PR-1645048) (rat, UniProt Q05028 74-182).
T4 construct: Lot 2235300; also called rat PDGF-BB; ratPDGF-BB
T4 sequence (Q05028 74-182 limits assumed): as the sequence (Q05028 74-182 limits assumed) above
Briefly: SPR (Biacore), antibody captured by anti-human Fc, antigen injected. How it is done:
Unreacted moieties on the biosensor surface were blocked with ethanolamine. For kinetic analysis, rate equations derived from the 1:1 Langmuir binding model were fitted simultaneously to multiple antigen injections (using global fit analysis) with the use of Scrubber 2 (BioLogic Software), Biacore Biaevaluation 4.0.1 software or Biacore T100 Evaluation software. Purified antibodies or DVD-Ig molecules were diluted in running buffer for capture across goat anti-human Fc reaction surfaces. Antibodies or DVD-Ig molecules to be captured as a ligand (1 μg/ml) were injected over reaction matrices at a flow rate of 10 μl/minute. During the assay, all measurements were referenced against the capture surface alone (i.e., with no captured antibody or DVD-Ig molecule). […] The equilibrium dissociation constant KD (M) of the reaction between antibodies and the target antigen was then calculated from the kinetic rate constants by the following formula: KD=Koff/Kₒₙ. Binding was recorded as a function of time and kinetic rate constants were calculated. In this assay, on-rates as fast as 10⁶M⁻¹s⁻¹ and off-rates as slow as 10⁻⁶ s⁻¹ could be measured.
In general terms: In SPR one partner is held on a chip, and binding of the other changes the refractive index at the surface.

T1 sequence (P01127 82-190 limits assumed): as the sequence (P01127 82-190 limits assumed) above

B1: chBDI-5G2 (antibody, human IgG1, V domains shown)
VH: QVTLKESGPGILQPSQTLSLTCTFSGFSLSTFGMGVGWIRQPSGKGLEWLANIWWDDDKYYNPSLKNRLTISKDTSNSQAFLEITNVDTADTATYYCARISTGISSYYVMDAWGQGASVTVSS
VL: QFTLTQPKSVSGSLRSTITIPCERSSGDIGDTYVSWYQQHLGRPPINVIYGNDQRPSEVSDRFSGSIDSSSNSASLTITNLQMDDEADYFCQSYDSDIDIVFGGGTKLTVL
notes: also called chimeric BDI-5G2-F9
For B1, the “huPDGF-BB Neutralization Potency (nM) in NIH-3T3 Cells” value (shortened to “huPDGF-BB Neutralization Potency (nM)”) in assay [1] came out at 0.181 nM. Further, in the assay with recombinant rat PDGF-BB [2], the “ratPDGF-BB Neutralization Potency (nM) in NIH-3T3 Cells” value was found to be 0.118 nM. In addition, in assay [3], the IC50 amounted to 1.08 nM.

B2: BDI-5H1-F6 (antibody, IgG2b, V domains shown)
VH: QVTLKESGPGILQPSQTLSLTCTFSGFSLSTFGMGVGWIRQPSGKGLEWLANIWWDDDKYYNPSLKNRLTISKDTSNSQAFLEITNVDTADTATYYCARISTGISSYYVMDAWGQGASVTVSS
VL: QFTLTQPKSVSGSLRSTITIPCERSSGDIGDTYVSWYQQHLGRPPINVIYGNDQRPSEVSDRFSGSIDSSSNSASLTITNLQMDDEADYFCQSYDSDIDIVFGGGTKLTVL
notes: Rat hybridoma monoclonal antibody
Take B2: in assay [4], the IC50 worked out at 0.528 nM. In assay [5], the “Phospho-Tyr751/hPDGF-BB Neutralization” value came out at 0.884 nM and the “huPDGF-BB Neutralization Potency (nM)” value stood at 0.371 nM. For the same molecule, the “Phospho-Tyr751/ratPDGF-BB Neutralization” value in the assay with recombinant rat PDGF-BB [6] came to 0.319 nM.

B3: BDI-9E8-E7 (antibody, IgG2b, V domains shown)
VH: QVTLKESGPGILQPSQTLSLTCTFSGFSLSTYGMGVGWIRQPSGKGLEWLANIWWDDDKYYNPSLKNRLTISKDTSNNQAFLKITNVDTADTATYYCARIESIGTTYSFDYWGQGVMVTVSS
VL: QFTLTQPKSVSGSLRSTITIPCERSSGDIGDSYVSWYQQHLGRPPINVIYADDQRPSEVSDRFSGSIDSSSNSASLTITNLQMDDEADYFCQSYDINIDIVFGGGTKLTVL
notes: as for B2
B3: the IC50 in assay [4] came out at 1.12 nM. Also, in assay [5], the “Phospho-Tyr751/hPDGF-BB Neutralization” value worked out at 0.629 nM and the “huPDGF-BB Neutralization Potency (nM)” value worked out at 0.195 nM. Moreover, the “Phospho-Tyr751/ratPDGF-BB Neutralization” value in the assay with recombinant rat PDGF-BB [6] stood at 0.333 nM.

B4: hBCU-6B1.2 (antibody, V domains shown)
VH: EVQLVQSGAEVKKPGASVKVSCKASGYTFTNYGMYWVKQAPGQGLEFMGWINTETGQPTYADDFKGRFTFTLDTSTSTAYMELRSLRSDDTAVYFCARLGNNYGIWFAYWGQGTLVTVSS
VL: DIQMTQSPSSLSASVGDRVTIECRASDDLYSTLAWYQQKPGKSPKLLIFDANRLAAGVPSRFSGSGSGTDYSLTISSLQPEDVATYFCQQYNKFPWTFGGGTKVEIK
notes: Humanized anti-human VEGFR II IgG from pHybE expression vectors
As to B4, the IC50 in assay [7] came to 0.34 nM.

B5: hBCU-6B1.3 (antibody, V domains shown)
VH: EVQLVQSGAEVKKPGASVKVSCKASGYTFTNYGMYWVRQAPGQGLEFMGWINTETGQPTYADDFKGRFTFTLDTSTSTAYMELRSLRSDDTAVYYCARLGNNYGIWFAYWGQGTLVTVSS
VL: DIQMTQSPSSLSASVGDRVTIECRASDDLYSTLAWYQQKPGKSPKLLIFDANRLAAGVPSRFSGSGSGTDYSLTISSLQPEDVATYFCQQYNKFPWTFGGGTKVEIK
notes: as for B4
As for B5, the concentration for half-maximal inhibition (IC50) in assay [7] amounted to 0.319 nM.

B6: hBCU-6B1.4 (antibody, V domains shown)
VH: EVQLVQSGAEVKKPGASVKVSCKASGYTFTNYGMYWVRQAPGQGLEFMGWINTETGQPTYADDFKGRFTFTLDTSTSTAYMELRSLRSDDTAVYYCARLGNNYGIWFAYWGQGTLVTVSS
VL: DIQMTQSPSSLSASVGDRVTITCRASDDLYSTLAWYQQKPGKSPKLLIFDANRLAAGVPSRFSGSGSGTDYTLTISSLQPEDVATYFCQQYNKFPWTFGGGTKVEIK
notes: as for B4
For the molecule B6, the concentration for half-maximal inhibition (IC50) in assay [7] is 0.335 nM.

B7: hBCU-6B1.1 (antibody, V domains shown)
VH: EVQLVQSGSELKKPGASVKVSCKASGYTFTNYGMYWVKQAPGQGLEFMGWINTETGQPTYADDFKGRFVFSLDTSVSTAYLQISSLKAEDTAVYFCARLGNNYGIWFAYWGQGTLVTVSS
VL: DIQMTQSPSSLSASVGDRVTIECRASDDLYSTLAWYQQKPGKSPKLLIFDANRLAAGVPSRFSGSGSGTDYSLTISSLQPEDVATYFCQQYNKFPWTFGGGTKVEIK
notes: as for B4
Consider B7, for which the IC50 in assay [7] was 0.474 nM.

B8: BDI-7H10-D8 (antibody, IgG2b, V domains shown)
VH: EVKLQQSGDELVRPGASVKMSCKASGYTFTDYAMHWVKQSPGQGLEWIGTIIPLIDTTSYNQKFKGKATLTADTSSNTAYMELSRLTSEDSAVYYCARDWDNNWGYFDYWGQGVMVTVSS
VL: DVVLTQTPVSLSVTLGDQASISCRSSQSLEYSDGYTYLEWYLQKPGQSPQLLIYGVSNRFSGVPDRFIGSGSGTDFTLKISRVEPEDLGVYYCFQATHDPLTFGSGTKLEIK
On to B8, for which, in the assay with recombinant rat PDGF-BB [6], the “Phospho-Tyr751/ratPDGF-BB Neutralization” value was greater than 5 nM.

B9: CL-33675 (antibody, V domains shown)
VH: EVTLRESGPALVKPTQTLTLTCTFSGFSLSTYGMGVGWIRQPPGKALEWLANIWWDDDKYYNPSLKNRLTISKDTSKNQVVLTMTNMDPVDTATYYCARIESSGPKYSFDYWGQGTMVTVSS
VL: EIVLTQSPGTLSLSPGERATLSCRASSGSIWYSFVSWYQQKPGQAPRLLIYADDQRASGIPDRFSGSGSGTDFTLTISRLEPEDFAVYYCQSYGINIDVVFGGGTKVEIK
notes: Converted to IgG; also called CL-33675-IgG; PR-1593725
Regarding B9, in the assay with rat PDGF-B (PR-1645048), the Kd is no more than 0.58 pM, the dissociation rate constant (koff) was 5.8e-06 s⁻¹ and the kon was no less than 1e+07 M⁻¹ s⁻¹.

As a reminder, the IC50 is the concentration that gives 50% inhibition. The Kd is a measure of binding affinity in units of concentration. By koff is commonly meant the first-order rate constant of dissociation. Usually kon stands for the rate constant with which the complex forms. A low value points to slower complex formation.
